From patent US20240374745A1 (AARHUS UNIVERSITET, published 2024) come the findings set out here.

In one assay the target is T1, PD-L1-hFc.
T1 construct: also called immobilized PD-L1; PD-L1 fused to a human Fc region
Kind of assay: BLI, immobilized PD-L1-hFc.

In assay [1] the target is T2, Recombinant LRP1 (residues 20-974), StrepII-tagged fusion with the human IgG1 Fc region.
T2 construct: also called LRP1 resin; LRP1 cluster 1B with Nt Strep tags and Ct hFc
Kind of assay: affinity depletion on LRP1-coated resin, three rounds.

T1 sequence (chain, as listed by the source limits assumed): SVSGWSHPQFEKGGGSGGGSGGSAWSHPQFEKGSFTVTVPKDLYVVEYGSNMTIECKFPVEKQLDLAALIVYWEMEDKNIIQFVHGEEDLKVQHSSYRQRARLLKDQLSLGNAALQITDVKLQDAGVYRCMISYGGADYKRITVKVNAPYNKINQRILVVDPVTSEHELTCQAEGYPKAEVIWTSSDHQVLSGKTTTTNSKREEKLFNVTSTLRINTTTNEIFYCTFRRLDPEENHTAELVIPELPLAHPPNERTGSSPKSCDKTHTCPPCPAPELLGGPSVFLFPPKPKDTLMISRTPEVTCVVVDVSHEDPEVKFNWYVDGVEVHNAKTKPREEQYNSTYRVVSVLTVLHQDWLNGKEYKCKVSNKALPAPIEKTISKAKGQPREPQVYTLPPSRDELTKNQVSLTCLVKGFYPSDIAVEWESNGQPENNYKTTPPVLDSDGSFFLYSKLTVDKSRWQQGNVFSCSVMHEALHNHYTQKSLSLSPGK
T2 sequence (chain, as listed by the source limits assumed): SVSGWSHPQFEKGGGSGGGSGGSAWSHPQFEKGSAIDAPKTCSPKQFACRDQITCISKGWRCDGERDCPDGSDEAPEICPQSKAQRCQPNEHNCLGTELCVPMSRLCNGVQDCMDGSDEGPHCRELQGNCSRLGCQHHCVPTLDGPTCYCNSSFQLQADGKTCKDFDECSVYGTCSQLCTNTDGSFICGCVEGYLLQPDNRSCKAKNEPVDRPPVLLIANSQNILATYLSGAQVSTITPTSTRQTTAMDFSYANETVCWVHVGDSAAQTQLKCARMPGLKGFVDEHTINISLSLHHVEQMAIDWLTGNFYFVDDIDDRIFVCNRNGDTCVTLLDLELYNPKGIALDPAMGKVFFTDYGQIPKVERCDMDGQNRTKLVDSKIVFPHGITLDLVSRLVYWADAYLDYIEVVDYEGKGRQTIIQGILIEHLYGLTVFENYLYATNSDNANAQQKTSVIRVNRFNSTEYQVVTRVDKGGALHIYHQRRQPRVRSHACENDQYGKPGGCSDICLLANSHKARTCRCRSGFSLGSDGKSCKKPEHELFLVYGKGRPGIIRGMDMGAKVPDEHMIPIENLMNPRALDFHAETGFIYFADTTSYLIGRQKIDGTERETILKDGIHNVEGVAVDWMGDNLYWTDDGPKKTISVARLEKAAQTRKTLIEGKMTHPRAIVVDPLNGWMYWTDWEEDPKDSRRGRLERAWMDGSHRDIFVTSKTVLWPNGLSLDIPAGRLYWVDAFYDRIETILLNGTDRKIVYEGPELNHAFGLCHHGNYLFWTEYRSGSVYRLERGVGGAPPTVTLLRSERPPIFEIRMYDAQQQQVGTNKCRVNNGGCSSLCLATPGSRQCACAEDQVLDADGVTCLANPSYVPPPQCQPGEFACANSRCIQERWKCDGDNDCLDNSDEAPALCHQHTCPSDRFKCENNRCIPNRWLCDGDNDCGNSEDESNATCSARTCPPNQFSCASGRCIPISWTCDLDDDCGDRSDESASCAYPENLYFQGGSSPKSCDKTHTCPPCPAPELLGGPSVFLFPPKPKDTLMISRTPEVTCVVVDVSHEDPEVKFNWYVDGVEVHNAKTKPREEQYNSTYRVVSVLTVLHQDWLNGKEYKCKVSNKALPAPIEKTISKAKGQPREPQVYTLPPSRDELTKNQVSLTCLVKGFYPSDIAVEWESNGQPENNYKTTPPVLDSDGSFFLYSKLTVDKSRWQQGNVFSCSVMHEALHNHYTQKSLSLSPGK

B1: A2M-PD1, methylamine-treated (other)
chain: SVSGKPQYMVLVPSLLHTETTEKGCVLLSYLNETVTVSASLESVRGNRSLFTDLEAENDVLHCVAFAVPKSSSNEEVMFLTVQVKGPTQEFKKRTTVMVKNEDSLVFVQTDKSIYKPGQTVKFRVVSMDENFHPLNELIPLVYIQDPKGNRIAQWQSFQLEGGLKQFSFPLSSEPFQGSYKVVVQKKSGGRTEHPFTVEEFVLPKFEVQVTVPKIITILEEEMNVSVCGLYTYGKPVPGHVTVSICRKYSDASDCHGEDSQAFCEKFSGQLNSHGCFYQQVKTKVFQLKRKEYEMKLHTEAQIQEEGTVVELTGRQSSEITRTITKLSFVKVDSHFRQGIPFFGQVRLVDGKGVPIPNKVIFIRGNEANYYSNATTDEHGLVQFSINTTNVMGTSLTVRVNYKDRSPCYGYQWVSEEHEEAHHTAYLVFSPSKSFVHLEPMSHELPCGHTQTVQAHYILNGGTLLGLKKLSFYYLIMAKGGIVRTGTHGLLVKQEDMKGHFSISIPVKSDIAPVARLLIYAVLPTGDVIGDSAKYDVENCLANKVDLSFSPSQSLPASHAHLRVTAAPQSVCALRAVDQSVLLMKPDAELSASSVYNLLPEKDLTGFPGPLNDQDDEDCINRHNVYINGITYTPVSSTNEKDMYSFLEDMGLKAFTNSKIRKPKMCPQLQQYEMHGPEGLRVGFYESDVMGRGHARLVHVEEPHTETVRKYFPETWIWDLVVVNSAGVAEVGVTVPDTITEWKAGAFCLSEDAGLGISSTASLRAFQPFFVELTMPYSVIRGEAFTLKATVLNYLPKCIRVSVQLEASPAFLAVPVEKEQAPHCICANGRQTVSWAVTPKSLGNVNFTVSAEALESQELCGTEVPSVPEHGRKDTVIKPLLVEPEGLEKETTFNSLLCPSGGEVSEELSLKLPPNVVEESARASVSVLGDILGSAMQNTQNLLQMPYGCGEQNMVLFAPNIYVLDYLNETQQLTPEVKSKAIGYLNTGYQRQLNYKHYDGSYSTFGERYGRNQGNTWLTAFVLKTFAQARAYIFIDEAHITQALIWLSQRQKDNGCFRSSGSLLNNAIKGGVEDEVTLSAYITIALLEIPLTVTHPVVRNALFCLESAWKTAQEGDHGSHVYTKALLAYAFALAGNQDKRKEVLKSLNEEAVKKDNSVHWERPQKPKAPVGHFYEPQAPSAEVEMTSYVLLAYLTAQPAPTSEDLTSATNIVKWITKQQNAQGGFSSTQDTVVALHALSKYGAATFTRTGKAAQVTIQSSGTFSSKFQVDNNNRLLLQQVSLPELPGEYSMKVTGEGCVYLQTSLKYNILPEKEEFPFALGVQTLPQTCDEPKAHTSFQISLSVSYTGSRSASNMAIVDVKMVSGFIPLKPTVKMLERSGSGGSGGSGGSGGSGGSDSPDRPWNPPTFSPALLVVTEGDNATFTCSFSNTSESFVLNWYRMSPSNQTDKLAAFPEDRSQPGQDSRFRVTQLPNGRDFHMSVVRARRNDSGTYLCGAISLAPKAQIKESLRAELRVTERRAEGSSGGSGGSGGSGGSNHVSRTEVSSNHVLIYLDKVSNQTLSLFFTVLQDVPVRDLKPAIVKVYDYYETDEFAIAEYNAPCSKDLGNA
modifications: thiol ester aminolysed with methylamine (position not given)
notes: Same chain after methylamine treatment; also called A2M ciRBD PD1
In the case of B1, the binding result with PD-L1-hFc is on record as “binds”.

B2: non-native A2M-PD1 (component of the untreated preparation) (other)
chain: SVSGKPQYMVLVPSLLHTETTEKGCVLLSYLNETVTVSASLESVRGNRSLFTDLEAENDVLHCVAFAVPKSSSNEEVMFLTVQVKGPTQEFKKRTTVMVKNEDSLVFVQTDKSIYKPGQTVKFRVVSMDENFHPLNELIPLVYIQDPKGNRIAQWQSFQLEGGLKQFSFPLSSEPFQGSYKVVVQKKSGGRTEHPFTVEEFVLPKFEVQVTVPKIITILEEEMNVSVCGLYTYGKPVPGHVTVSICRKYSDASDCHGEDSQAFCEKFSGQLNSHGCFYQQVKTKVFQLKRKEYEMKLHTEAQIQEEGTVVELTGRQSSEITRTITKLSFVKVDSHFRQGIPFFGQVRLVDGKGVPIPNKVIFIRGNEANYYSNATTDEHGLVQFSINTTNVMGTSLTVRVNYKDRSPCYGYQWVSEEHEEAHHTAYLVFSPSKSFVHLEPMSHELPCGHTQTVQAHYILNGGTLLGLKKLSFYYLIMAKGGIVRTGTHGLLVKQEDMKGHFSISIPVKSDIAPVARLLIYAVLPTGDVIGDSAKYDVENCLANKVDLSFSPSQSLPASHAHLRVTAAPQSVCALRAVDQSVLLMKPDAELSASSVYNLLPEKDLTGFPGPLNDQDDEDCINRHNVYINGITYTPVSSTNEKDMYSFLEDMGLKAFTNSKIRKPKMCPQLQQYEMHGPEGLRVGFYESDVMGRGHARLVHVEEPHTETVRKYFPETWIWDLVVVNSAGVAEVGVTVPDTITEWKAGAFCLSEDAGLGISSTASLRAFQPFFVELTMPYSVIRGEAFTLKATVLNYLPKCIRVSVQLEASPAFLAVPVEKEQAPHCICANGRQTVSWAVTPKSLGNVNFTVSAEALESQELCGTEVPSVPEHGRKDTVIKPLLVEPEGLEKETTFNSLLCPSGGEVSEELSLKLPPNVVEESARASVSVLGDILGSAMQNTQNLLQMPYGCGEQNMVLFAPNIYVLDYLNETQQLTPEVKSKAIGYLNTGYQRQLNYKHYDGSYSTFGERYGRNQGNTWLTAFVLKTFAQARAYIFIDEAHITQALIWLSQRQKDNGCFRSSGSLLNNAIKGGVEDEVTLSAYITIALLEIPLTVTHPVVRNALFCLESAWKTAQEGDHGSHVYTKALLAYAFALAGNQDKRKEVLKSLNEEAVKKDNSVHWERPQKPKAPVGHFYEPQAPSAEVEMTSYVLLAYLTAQPAPTSEDLTSATNIVKWITKQQNAQGGFSSTQDTVVALHALSKYGAATFTRTGKAAQVTIQSSGTFSSKFQVDNNNRLLLQQVSLPELPGEYSMKVTGEGCVYLQTSLKYNILPEKEEFPFALGVQTLPQTCDEPKAHTSFQISLSVSYTGSRSASNMAIVDVKMVSGFIPLKPTVKMLERSGSGGSGGSGGSGGSGGSDSPDRPWNPPTFSPALLVVTEGDNATFTCSFSNTSESFVLNWYRMSPSNQTDKLAAFPEDRSQPGQDSRFRVTQLPNGRDFHMSVVRARRNDSGTYLCGAISLAPKAQIKESLRAELRVTERRAEGSSGGSGGSGGSGGSNHVSRTEVSSNHVLIYLDKVSNQTLSLFFTVLQDVPVRDLKPAIVKVYDYYETDEFAIAEYNAPCSKDLGNA
notes: The part of the untreated preparation that is removed by LRP1-based depletion; also called A2M ciRBD PD1
In the case of B2, the binding result in assay [1] was “binds”.

B3: A2M-PD1, thermolysin-treated (other)
chain: SVSGKPQYMVLVPSLLHTETTEKGCVLLSYLNETVTVSASLESVRGNRSLFTDLEAENDVLHCVAFAVPKSSSNEEVMFLTVQVKGPTQEFKKRTTVMVKNEDSLVFVQTDKSIYKPGQTVKFRVVSMDENFHPLNELIPLVYIQDPKGNRIAQWQSFQLEGGLKQFSFPLSSEPFQGSYKVVVQKKSGGRTEHPFTVEEFVLPKFEVQVTVPKIITILEEEMNVSVCGLYTYGKPVPGHVTVSICRKYSDASDCHGEDSQAFCEKFSGQLNSHGCFYQQVKTKVFQLKRKEYEMKLHTEAQIQEEGTVVELTGRQSSEITRTITKLSFVKVDSHFRQGIPFFGQVRLVDGKGVPIPNKVIFIRGNEANYYSNATTDEHGLVQFSINTTNVMGTSLTVRVNYKDRSPCYGYQWVSEEHEEAHHTAYLVFSPSKSFVHLEPMSHELPCGHTQTVQAHYILNGGTLLGLKKLSFYYLIMAKGGIVRTGTHGLLVKQEDMKGHFSISIPVKSDIAPVARLLIYAVLPTGDVIGDSAKYDVENCLANKVDLSFSPSQSLPASHAHLRVTAAPQSVCALRAVDQSVLLMKPDAELSASSVYNLLPEKDLTGFPGPLNDQDDEDCINRHNVYINGITYTPVSSTNEKDMYSFLEDMGLKAFTNSKIRKPKMCPQLQQYEMHGPEGLRVGFYESDVMGRGHARLVHVEEPHTETVRKYFPETWIWDLVVVNSAGVAEVGVTVPDTITEWKAGAFCLSEDAGLGISSTASLRAFQPFFVELTMPYSVIRGEAFTLKATVLNYLPKCIRVSVQLEASPAFLAVPVEKEQAPHCICANGRQTVSWAVTPKSLGNVNFTVSAEALESQELCGTEVPSVPEHGRKDTVIKPLLVEPEGLEKETTFNSLLCPSGGEVSEELSLKLPPNVVEESARASVSVLGDILGSAMQNTQNLLQMPYGCGEQNMVLFAPNIYVLDYLNETQQLTPEVKSKAIGYLNTGYQRQLNYKHYDGSYSTFGERYGRNQGNTWLTAFVLKTFAQARAYIFIDEAHITQALIWLSQRQKDNGCFRSSGSLLNNAIKGGVEDEVTLSAYITIALLEIPLTVTHPVVRNALFCLESAWKTAQEGDHGSHVYTKALLAYAFALAGNQDKRKEVLKSLNEEAVKKDNSVHWERPQKPKAPVGHFYEPQAPSAEVEMTSYVLLAYLTAQPAPTSEDLTSATNIVKWITKQQNAQGGFSSTQDTVVALHALSKYGAATFTRTGKAAQVTIQSSGTFSSKFQVDNNNRLLLQQVSLPELPGEYSMKVTGEGCVYLQTSLKYNILPEKEEFPFALGVQTLPQTCDEPKAHTSFQISLSVSYTGSRSASNMAIVDVKMVSGFIPLKPTVKMLERSGSGGSGGSGGSGGSGGSDSPDRPWNPPTFSPALLVVTEGDNATFTCSFSNTSESFVLNWYRMSPSNQTDKLAAFPEDRSQPGQDSRFRVTQLPNGRDFHMSVVRARRNDSGTYLCGAISLAPKAQIKESLRAELRVTERRAEGSSGGSGGSGGSGGSNHVSRTEVSSNHVLIYLDKVSNQTLSLFFTVLQDVPVRDLKPAIVKVYDYYETDEFAIAEYNAPCSKDLGNA
notes: Same chain after thermolysin cleavage of the bait region; also called A2M ciRBD PD1
As for B3, the binding result with PD-L1-hFc was “binds”.
